Where a chain is given by its changes, count along the chain named. Names and notes keep the numbering of the source.

The labels stand for the following.
T1: GITR-ECD-hFc (UniProt Q9Y5U5 26-162, limits assumed)
T1 construct: extracellular domain; not shown: human Fc (hFc)
T1 sequence (looked up): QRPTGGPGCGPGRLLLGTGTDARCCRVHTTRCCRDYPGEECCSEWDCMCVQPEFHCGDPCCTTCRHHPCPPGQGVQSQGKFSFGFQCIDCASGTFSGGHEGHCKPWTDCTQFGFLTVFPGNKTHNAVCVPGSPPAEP

T2: human GITR (ECD)-mFc (human, UniProt Q9Y5U5 26-162)
T2 construct: extracellular domain; Bought (Dongda Bioscience); also called GITR-mFc; not shown: mouse Fc (mFc)
T2 sequence (looked up): T1 sequence (looked up)

T3: human GITR on cells (293T-GITR, Jurkat-hGITR / Jurkat-GITR, Jurkat-GITR-NF-kB, 293T-GITR-NFkb-luc, primary … (human, UniProt Q9Y5U5 26-241))
T3 construct: whole, on cells; also called TNFRSF18; CD357
T3 sequence (looked up): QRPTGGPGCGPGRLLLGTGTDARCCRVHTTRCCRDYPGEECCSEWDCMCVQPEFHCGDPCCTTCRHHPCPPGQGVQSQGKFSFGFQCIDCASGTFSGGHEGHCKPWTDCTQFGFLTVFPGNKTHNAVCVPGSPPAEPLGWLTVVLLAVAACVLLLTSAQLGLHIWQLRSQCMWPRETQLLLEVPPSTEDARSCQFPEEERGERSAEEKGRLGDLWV

B1: 13G12 (murine) (antibody, V domains shown)
VH: QVQLQQPGTELVKPGASVKLSCKASGYTFTSNWMNWVKQRPGHGLEWIGNIYPSNGGTNYNEKFKSKATLTVDKSSSTAYMQLRGLTSEDSAVYYCVRHSNYVGAMDYWGQGTSVTVSS
VL: QIVLTQSPAIMSASPGEKVTMTCGASSSVSYMYWFQQKPGSSPRLLIYDTFNLASGVPVRFSGSESGTSYSLTISRMEAEDAATYYCQHWSSYPPTFGSGTKLEIDR
notes: Mouse hybridoma monoclonal antibody
B2: 4E4 (murine) (antibody, V domains shown)
VH: EVQLQQSGPELVKPGASVKISCKASGYTFTDHYMNWVKQSHGKSLEWIGDIDPKNGGTLYNQNFKGRATLTVDKSSSTAYMDLRSLTSEDSAVYYCARREAMDYWGQGTSVTVSS
VL: DVLMTQIPLSLPVSFGDQASISCRSSQSIVYSNGNTYLNWYLQKPGQSPKLLIYKVSNRFSGVPDRFSGSGSGTDFTLKISRVEAEDLGVYYCFQGSHVPWTFGGGTKLEIKR
notes: as for B1
B3: 3F5 (humanized) -hIgG1 (antibody, V domains shown)
VH: QVQLVQSGAEVKKPGASVKVSCKASGYTFTDHYMHWVRQAPGQGLEWIGDINPNSGGTINNQNFKGRATLTVDKSISTAYMELSRLRSDDTAVYYCARGFSGLAYWGQGTLVTVSS
VL: DIVMTQTPLSSPVTLGQPASISCKSSQSLLDRDGKTYLNWLQQRPGQPPRRLIYLVSILDSGVPDRFSGSGAGTDFTLKISRVEAEDVGVYYCWQGTHFPWTFGQGTKLEIKR
notes: also called h3F5-hIgG1; h3F5-IgG1
B4: h4B11-hIgG1 (antibody, V domains shown)
VH: EVQLVQSGAEVKKPGASVKVSCKASGFTFTDSVLHWVRQAPGQRLEWIGYIHPYNDDTKFHDSFKGRATLTSDKSASTAYMELSSLRSEDTAVYYCSRNDELRVALDYWGQGTLVTVSS
VL: EIVLTQSPATLSLSPGERATLSCRASQSVSTSTYSYVHWYQQKPGQAPRLLIKYASNLESGIPARFSGSGSGTDFTLTISSLEPEDFAVYYCQHSWGNPWTFGGGTKVEIKR
notes: Humanized 4B11, human IgG1; also called 4B11 (humanized); h4B11-IgG1
B5: 10E11VH(G24A/A67V)-hIgG1(3A) (antibody)
heavy: EVQLVQSGAEVKKPGESLRISCKASGYPVSRYWIEWVRQMPGKGLEWIGEILPGSDYANYNEKFKGHVTFSADISISTAYLQWSSLKASDTAMYYCSRKGAYYALDFWGQGTLVTVSSASTKGPSVFPLAPSSKSTSGGTAALGCLVKDYFPEPVTVSWNSGALTSGVHTFPAVLQSSGLYSLSSVVTVPSSSLGTQTYICNVNHKPSNTKVDKKVEPKSCDKTHTCPPCPAPELLGGPSVFLFPPKPKDTLMISRTPEVTCVVVDVSHEDPEVKFNWYVDGVEVHNAKTKPREEQYNATYRVVSVLTVLHQDWLNGKEYKCKVSNKALPAPIAATISKAKGQPREPQVYTLPPSRDELTKNQVSLTCLVKGFYPSDIAVEWESNGQPENNYKTTPPVLDSDGSFFLYSKLTVDKSRWQQGNVFSCSVMHEALHNHYTQKSLSLSPG
light: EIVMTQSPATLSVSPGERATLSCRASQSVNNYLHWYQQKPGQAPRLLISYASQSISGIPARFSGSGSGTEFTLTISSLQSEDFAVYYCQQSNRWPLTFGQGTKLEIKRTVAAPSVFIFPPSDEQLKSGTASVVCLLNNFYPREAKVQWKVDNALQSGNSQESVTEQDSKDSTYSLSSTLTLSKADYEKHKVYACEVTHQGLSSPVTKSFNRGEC
notes: Humanized 10E11 (AV), human IgG1 with the 3A Fc variant; also called 10E11VH(AV)-hIgG1(3A); h10E11(AV)-hIgG1(3A)
B6: h4E4-hIgG1 (antibody, V domains shown)
VH: QVQLVQSGAEVKKPGASVKVSCKASGYTFTDHYMNWVRQAPGQGLEWIGDIDPKNGGTLYNQNFKGRATLTVDKSISTAYMELSRLRSDDTAVYYCARREAMDYWGQGTLVTVSS
VL: B2 VL with L3V, I7S, S14T, F15P, D17E, Q18P, K50Q, L88V, L109V
notes: Humanized 4E4, human IgG1; also called 4E4 (humanized); h4E4-IgG1
B7: 9B3 (murine) (antibody, V domains shown)
VH: QVQLQQSGAELMNLGASVKISCKATGYPVSRYWIEWLKQRPGHGPEWIGEILPGSDYANYNEKFKGKATFTADISSNSAYMQLSSLTSEDSAVYYCSRKGAYYALDFWGQGTSVTVSS
VL: DIVMTQSPATLSVTPGERVSLSCRASQSVNNYLHWYQQKSHESPRLLISYVSQSISGISSRFSGSGSGTDFTLIIHSVETEDFGMYFCQQSNRWPLTFGAGTKLELK
notes: as for B1

One experiment has as its target T1, GITR-ECD-hFc. Put plainly: ELISA, plate-coated GITR-ECD-hFc. On the procedure: ELISA assay: a 96-well ELISA plate (Corning, Cat No: 9018) was inoculated with GITR-ECD-hFc, left standing overnight at 4° C., and washed 3 times with washing buffer (PBS+0.05% Tween 20), then blocking buffer (PBS+1% BSA (Sigma, Cat No: V90093)) was added, and the 96-well ELISA plate was incubated for 1 hour and washed 3 times; hybridoma supernatant was added, the 96-well ELISA plate was incubated for 1 hour and washed 3 times, 100 µL of goat anti-mouse IgG secondary antibodies (Thermo, Cat No: 31432) diluted at a ratio of 1:10000 was added into each well, and the 96-well ELISA plate was incubated at room temperature for 1 hour and washed 3 times. 100 µL of TMB (Biosubstrate Technologies, Cat No: ES-002) was added into each well and left standing for 3 minutes for color development, then a stop solution (2N H₂SO₄) was added at a dose of 100 µL/well to terminate the reaction, and OD450×signal of each sample was measured with a Tecan Spark microplate reader.
For B1, a half-maximal effect (EC50) was put at 0.0103 µg/mL.
Same read-out and setting: for B2 the value was 0.0017 µg/mL.

The target in a further experiment is T2, human GITR (ECD)-mFc. Put plainly: ELISA, plate-coated GITR-mFc. How it is done:
As indicated by the X axis, the concentrations of the test antibodies were 20000 ng/mL, 2000 ng/mL, 200 ng/mL, 20 ng/mL, 2 ng/mL, 0.2 ng/mL, 0.02 ng/mL, 0.002 ng/mL, 0.0002 ng/mL, and 0.00002 ng/mL.
For orientation: ELISA stands for enzyme-linked immunosorbent assay.
Consider B3, for which the “EC50 (read off the curve)” value is ~0.02 µg/mL.
As for B4, the half-maximal effective concentration (EC50 (read off the curve)) was ~0.005 µg/mL.
With B5, the concentration for a half-maximal effect (EC50 (read off the curve)) is ~0.006 µg/mL.
On the same count and under the same terms, for B6 the value was ~0.06 µg/mL.

Another experiment addresses T3, human GITR on cells (293T-GITR, …). The experiment can be described thus: FACS (MFI), binding to Jurkat-GITR cells.
Molecule B3 showed an EC50 of 0.112 µg/mL.
In turn, B4 yielded an EC50 of 0.132 µg/mL.
B5 showed a concentration giving a half-maximal response (EC50) of 0.102 µg/mL.
Same read-out and setting: the same measure for B6: 0.0895 µg/mL.

A further experiment shares this target. Put plainly: FACS, blocking of GITR-L (0.25 ug/mL) binding to Jurkat-GITR cells. (In general: A flow cytometer gives signals particle by particle.)
Turning to B3, the half-inhibitory concentration (IC50) was found to be 0.101 µg/mL.
B4 displayed an IC50 of 0.284 µg/mL.
On to B5, for which the IC50 stood at 0.151 µg/mL.
B6 registered a concentration for half-maximal inhibition (IC50) of 0.169 µg/mL.

Another experiment shares this target. Put plainly: FACS competition on Jurkat-hGITR cells; competitor biotin-labeled human GITR ligand. How it is done:
FACS assay for the blocking effect of the antibodies: FACS assay was conducted by using BD C6 to determine the blocking effect of the hybridoma antibodies on the binding of biotin-labeled human GITR ligands to Jurkat-hGITR cells. Jurkat-hGITR cells were suspended in FACS buffer (PBS containing 3% FBS). Diluted hybridoma antibodies were added into the cell suspension and the mixture was incubated in a 96-well plate for 1 hour at 4° C. […] After incubation, the 96-well plate was washed 3 times, and mouse anti-biotin PE antibodies (Biolgend, Cat No: 409004) were added and incubated at 4° C. for 0.5 hours. The cells in the 96-well plate were washed 3 times and finally analyzed with BD C6.
Take B1: the IC50 came out at 4 µg/mL.
Still for that read-out and setting: for B7 the value was 0.0413 µg/mL.

As usually defined, the EC50 is the midpoint of the concentration-response curve. For orientation: EC50 (read off the curve) means the concentration needed to bring the measured effect to its halfway point. The term IC50 denotes the concentration that gives 50% inhibition.

Values taken from patent US20230295323A1 (DONGDA BIOSCIENCE INC SUZHOU, published 2023).
